Laboratory results from PMC9017650.

Experiments:
[1] = target: human FcγRIIIa receptor, V158 variants (human)
[2] = target: recombinant human TNFα (human) (UniProt P01375); test: SPR
Golimumab A (human) = test: SPR; Biacore T200; anti-human Fc antibody immobilised on a CM5 chip, golimumab captured, TNFα as analyte at five concentrations (7.81–125 nM), 30 μL/min, 25°C, 1:1 Langmuir model, KD = Kd/Ka
Golimumab B (human) = test: as above

Substance	ADCC reporter gene assay, EC50 (Jurkat NFAT-luciferase cells with FcγRIIIa V158 as effector cells, CHO-K1/hmTNFα as target cells) [1]	koff [2]	also measured
Golimumab A (antibody)	0.15 µg/mL	–	–
Golimumab A (from UniProt P01857)	–	0.000164 s⁻¹	–
Golimumab B (antibody)	0.152 µg/mL	–	–
Golimumab B (from UniProt P01857)	–	0.000149 s⁻¹	–
recombinant human TNFα (from UniProt P01375 77-233) (ligand)	–	–	Kd (Golimumab A (human)): 12.4 pM; Kd (Golimumab B (human)): 10.6 pM
